The target in assay [1] is T1, human nerve growth factor (hNGF) (human, UniProt P01138 122-241). Description: cell-based or functional assay.
Assay [2] has as its target T1, human nerve growth factor (hNGF). Description: ELISA, hNGF coated at 2 ug/mL, antibody titrated from 10 ug/mL, goat anti-human IgG-HRP. The protocol: Antibody TRN1027 was tested for binding activity to hNGF by the ELISA assay. Specifically, 2 μg/mL of hNGF as an antigen was diluted and coated with carbonate buffer at pH 9.6 in a 96-well plate overnight at 4° C.; the plate was blocked by the blocking solution at 37° C. for 2 h. The antibody TRN1027 was serial diluted with the blocking solution, starting at 10 μg/mL, 3-fold dilution for 12 gradients; each gradient of antibody TRN1027 was then added to a 96-well plate and incubated for 1 h at 37° C. The plate was washed with the PBST buffer, added with 100 μ/well LHRP labeled goat anti-human IgG (1: 10000), and incubate at 37° C. for 1 h. The plate was washed with the PBST buffer, added with 100 μL/well TMB developing solution away from light, and placed for 5 min at 37° C. H₂SO₄ was added to stop the reaction. The detection was conducted at 450 nm wavelength. The results were calculated and analyzed.

Assay [3] concerns the target T2, human brain-derived neurotrophic factor (hBDNF) (human, UniProt P23560 129-247).
T2 construct: Bought protein (Absin)
T2 sequence (looked up): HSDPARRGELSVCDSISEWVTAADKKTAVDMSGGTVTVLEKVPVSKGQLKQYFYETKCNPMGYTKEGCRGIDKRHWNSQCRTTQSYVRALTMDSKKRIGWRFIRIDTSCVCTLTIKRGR
Briefly: ELISA, neurotrophin coated on plate, goat anti-human IgG-HRP detection. The protocol:
(§1) The present invention determines the cross-reactivity of antibody TRN1027 to other neurotrophins by ELISA. HBDNF, hNT-3 and hNT-4 (Absin) were used as antigens to coat the 96-well plate at […] overnight at 4° C., respectively. Then the plate was blocked with the blocking solution for 2 hours at ambient temperature. The plate was added with antibody TRN1027 with decreasing concentrations (ranging from 10 ug/ml-0 ug/ml) at 100 ul/well and incubated at 37° C. for 1 h. Antibody TRN1027 was detected by TMB with goat-anti-human IgG-HRP (1: 10000) and the substrate developer. OD values were measured at dual wavelengths of 450-630 nm.

For assay [4], the target named is T3, human neurotrophin-3 (hNT-3) (human, UniProt P20783 139-257).
T3 construct: Bought protein (Absin)
T3 sequence (looked up): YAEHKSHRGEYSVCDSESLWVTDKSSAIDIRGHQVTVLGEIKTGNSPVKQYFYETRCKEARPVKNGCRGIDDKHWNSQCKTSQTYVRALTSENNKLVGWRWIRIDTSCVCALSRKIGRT
Described as above. The procedure:
as §1

In assay [5] the target is T4, human neurotrophin-4 (hNT-4) (human, UniProt P34130 81-210).
T4 construct: Bought protein (Absin)
T4 sequence (looked up): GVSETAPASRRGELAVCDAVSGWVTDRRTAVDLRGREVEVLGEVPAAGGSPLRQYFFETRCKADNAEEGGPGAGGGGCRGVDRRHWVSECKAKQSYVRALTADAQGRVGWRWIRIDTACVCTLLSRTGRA
The assay is described as above. The protocol: as §1

The target in assay [6] is T1, human nerve growth factor (hNGF). Briefly: SPR (BIACORE3000), antibody captured by anti-human IgG (Fc) on CM5 chip, hNGF as analyte. From the text:
The binding force between an antibody and an antigenic determinant, called antibody affinity, reflects the ability of the antibody molecule to bind to the antigenic determinant. In this example, the antigen binding affinity of antibody TRN1027 was detected using surface plasmon resonance analysis (BIACORE3000). Anti-human IgG (Fc) antibody was immobilized on the surface of CM5 sensor chip (GE) by amino-coupling method. The anti-NGF antibody was captured as a ligand, the capture level reached about 400 RU. Different concentrations of hNGF protein were passed through the detection channel as the analyte streams. The binding of antigen to antibody and dissociation of the bound complex was monitored in real-time. Kinetic analysis (calculation of dissociation constants (KD)) was performed with the Biacore X100 Evaluation Software (2.0.1).

T1 sequence (P01138 122-241 limits assumed): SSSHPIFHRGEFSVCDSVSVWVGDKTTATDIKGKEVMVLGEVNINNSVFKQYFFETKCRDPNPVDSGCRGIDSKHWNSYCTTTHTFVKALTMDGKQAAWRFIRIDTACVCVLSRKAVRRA

B1: anti-NGF antibody Tanezumab (CAS No. 880266-57-9, published in CN 102746399 B, also known as E3) (antibody, V domains shown)
VH: QVQLQESGPGLVKPSETLSLTCTVSGFSLIGYDLNWIRQPPGKGLEWIGIIWGDGTTDYNSAVKSRVTISKDTSKNQFSLKLSSVTAADTAVYYCARGGYWYATSYYFDYWGQGTLVTVSS
VL: DIQMTQSPSSLSASVGDRVTITCRASQSISNNLNWYQQKPGKAPKLLIYYTSRFHSGVPSRFSGSGSGTDFTFTISSLQPEDIATYYCQQEHTLPYTFGQGTKLEIKR
In the case of B1, in assay [1], the “EC50 of inhibition of NGF-induced proliferation of TF-1 cells (MTS)” value worked out at 14.3 ng/mL and the “EC50 of neutralisation of NGF on PC-12 cells (Celltiter-Glo cell viability)” value was determined as 32.2 ng/mL. This molecule came in with an EC50 in assay [2] of 2.96 ng/mL.

B2: human anti-NGF antibody TRN1027 (antibody, V domains shown)
VH: QLQLQESGSGLVRPSQTLSLTCAVSGDSMNSGGYSWSWIRQPPGKGLEWIGYIYYSGSTHYNPSLESRVTLSLHRSKNQFFLQLSSVTAADTAVYYCARTLWFGEFEGFDPWGQGILVTVSS
VL: QSALTQPPSASGSPGQSVTISCTGTSSDVGGYNFVSWYQHHPGKAPKLLLYEVSKRPSGVPDRFSGSKSGNTASLTVSGLQAEDEADYFCSSFAGSNNFVFFGGGTKLTVL
As for B2, the “EC50 of inhibition of NGF-induced proliferation of TF-1 cells (MTS)” value in assay [1] turned out to be 3.01 ng/mL. Also, the “EC50 of neutralisation of NGF on PC-12 cells (Celltiter-Glo cell viability)” value in assay [1] turned out to be 8.83 ng/mL. For the same molecule, the binding result in assay [3], in assay [4] and in assay [5] was “no binding (tested: 10 ug/ml-0 ug/ml)” throughout. For the same molecule, in assay [2], the EC50 was found to be 1.07 ng/mL. Moreover, the Kd in assay [6] turned out to be 0.0168 nM.

(Values after patent US20230151085A1 (TRINOMAB BIOTECH, published 2023).)
